The subject of this data set is MS2 coat protein. The data set is described as follows: apparent KD of MS2 coat protein; designed switch direction (-1 OFF switch, 1 ON switch): -1; higher = weaker reporter binding. In outline: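 Designed RNA switches with common flanks were made on Illumina chips by stalled E. coli RNA polymerase. Titration with SNAP-549-labelled MS2 coat protein doubled from 0.7 or 1.5 nM up to 3 µM. Apparent KD is each design's median over clusters after curve-fitting normalised fluorescence.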

[1] abbreviates: input ligand: microRNA oligo, concentration not stated.
[2] abbreviates: Eterna round: R95, input ligand: microRNA oligo, concentration not stated.
The mark [3] stands for this setting: Eterna round: R95, input ligand: FMN 200 uM.
[4] abbreviates: Eterna round: R95, input ligand: none.

Consider “UCGUCCUGUGUAGGAUAUCGCGGGCUUUGCCCGCGAGAAGGACAUGAGGAUCACCCAUGUGGGCCGCGCCGCGGGCGCGGCCCA [new design] (Eterna round: R96, puzzle: Exclusion NG 1)”, for which the “apparent KD of MS2 coat protein” value runs as follows: (input ligand: FMN 200 uM) 1360 nM; under setting [1], 4700 nM; (input ligand: none) 230 nM.

In the case of “UCGUGGAUCGAGGAUAUGCCACGGACAGACGCCGCAGAAGGCGAAACAUGAGGAUCACCCAUGUGUGCCAUCCU [Eternabot (L1) Solution 52] (Eterna round: R97, puzzle: Exclusion 6)”, the “apparent KD of MS2 coat protein” value by setting is: (input ligand: FMN 200 uM) 58.5 nM; (input ligand: none) 56.5 nM.

With “UCGUGUAUAGAGGAUAUAUUAUUUAUUUAAACAAUAGAAGGCUAAACAUGAGGAUCACCCAUGUAUUUGGUUUU [JR_Ex6_Sub052] (Eterna round: R97, puzzle: Exclusion 6)”, the “apparent KD of MS2 coat protein” value reads like this: (input ligand: FMN 200 uM) 59.9 nM; (input ligand: none) 21.8 nM.

Take “UCGUGUCGAGAGGAUAUCUAGGACACCCUUCCAAGAGAAGGCUUGACAUGAGGAUCACCCAUGUACGGGUAAAU [EX6 A.9] (Eterna round: R97, puzzle: Exclusion 6)”: the “apparent KD of MS2 coat protein” value worked out at 25.6 nM (input ligand: FMN 200 uM) and 39.9 nM (input ligand: none).

As to “UCGUGUCUUGAGGAUAUGUUUGAAAAGGCCCACGCAGAAGGCGAGACAUGAGGAUCACCCAUGUCACAGCUCCG [EX6 C.16] (Eterna round: R97, puzzle: Exclusion 6)”, the “apparent KD of MS2 coat protein” value (input ligand: FMN 200 uM) is 56.4 nM and the “apparent KD of MS2 coat protein” value (input ligand: none) came out at 18.6 nM.

As for “UCGUUCCGUGUAGGAUAUUGGCCUUCCCUGGGCCGAGAAGGACAUGAGGAUCACCCAUGUAUGUUAUUAUCGCGCGUGGCGCAU [Design 86] (Eterna round: R96, puzzle: Exclusion NG 1)”, the “apparent KD of MS2 coat protein” value by setting is: (input ligand: FMN 200 uM) 73.9 nM; under setting [1], 14.5 nM; (input ligand: none) 18.4 nM.

In the case of “UCGUUGUGAGGAUAUAUAUGCAGUAAUCCUUUAAAUUUAUAACUUGAGGAUCACCCAAGUAGAAGGCGCGACGU [JR_Ex2_Sub056] (Eterna round: R97, puzzle: Exclusion 2)”, the “apparent KD of MS2 coat protein” value turned out to be 160 nM (input ligand: FMN 200 uM) and 30.2 nM (input ligand: none).

Consider “UCGUUUUUUGAGGAUAUGCGACGUUCCUUCGUCGUAGAAGGCGAUACAUGAGGAUCACCCAUGUUUAUGGGCAU [LRO-Ex6-16] (puzzle: Exclusion 6)”, for which, under setting [2], the “apparent KD of MS2 coat protein” value came out at 109 nM.

In the case of “UCUAGCUUUUUGCGUCAAGCAUUGAAGUCUGUUAUCGUUACAUGAGGAUCACCCAUGUUUGUUUUAUGUCGUCUUGA [JR_SV3TOV2_Sub100] (puzzle: Sensor v3, turn-off variant 2)”, the “apparent KD of MS2 coat protein” value is, setting by setting: under setting [3], 19.3 nM; under setting [2], 15.6 nM; under setting [4], 22.2 nM.

As for “UCUAGUUGGCAAGGAUAUCCUACAUUGUUCUGGCCCGGGCAUGCUACAUGAGGAUCACCCAUGUGGGAGAAGGUGCGUCAUUGC [Design 22] (Eterna round: R96, puzzle: Exclusion NG 2)”, the “apparent KD of MS2 coat protein” value was determined as 70.9 nM (input ligand: FMN 200 uM), 50.5 nM under setting [1] and 82.1 nM (input ligand: none).

With “UCUCGCGGGCAAGGAUAUCCUACGCUGUUCUGGCCCGUGUUUGUUACAUGAGGAUCACCCAUGUGGGAGAAGGUGCACCAGGGC [Design 41] (Eterna round: R96, puzzle: Exclusion NG 2)”, the “apparent KD of MS2 coat protein” value worked out at 62 nM (input ligand: FMN 200 uM), 36.5 nM under setting [1] and 76.4 nM (input ligand: none).

Consider “UCUGCCGCCGUGAGGAUAUGCCCGCGCGCCCGCGGGCAGAAGGCACAUGAGGAUCACCCAUGUCCCGCGGCAUU [salish99_bmx4_r4_128] (Eterna round: R97, puzzle: Brourd's mod of Exclusion 4)”, for which the “apparent KD of MS2 coat protein” value is, setting by setting: (input ligand: FMN 200 uM) 36.4 nM; (input ligand: none) 17.4 nM.

“UCUGGAGCAGGAUAUAUAUGACGUGCUUCGGCACGGUGAGUACAUGAGGAUCACCCAUGUAGAAGGGCUCCAGA [Exclusion 2 (Mod of Brourd's E2/9-D2)] (Eterna round: R97, puzzle: Exclusion 2)”: the “apparent KD of MS2 coat protein” value by setting is: (input ligand: FMN 200 uM) 81.8 nM; (input ligand: none) 20.3 nM.

In the case of “UCUGGUCGAGGAUAUACAUGAGGAUCACCCAUGUGAUUAGCAGUCCUCGGACUGCAAUGUAGAAGGCGACCAGA [E3/2-A3] (Eterna round: R97, puzzle: Exclusion 3)”, the “apparent KD of MS2 coat protein” value by setting is: (input ligand: FMN 200 uM) 894 nM; (input ligand: none) 393 nM.

“UCUGUACAUCCCAAGCAUAACAUGAGGAUCACCCAUGUUGAACAAAACGUCGGUCCUGCUGCUCGUCGAAGGAAUAG [Eternabot (Original) Solution 8] (Eterna round: R97, puzzle: Sensor, turn-off variant 1)”: the “apparent KD of MS2 coat protein” value came out at 47.4 nM (input ligand: FMN 200 uM) and 47.5 nM (input ligand: none).

Turning to “UCUUACUGAGGAUAUACAUAGAUUUACAUGAGGAUCACCCAUGUUCCUCUAAGUAUAUAUGUAGAAGGCAGAAGAA [Mat - Exclusion 5 - JL Mod - D43] (Eterna round: R97, puzzle: Exclusion 5)”, the “apparent KD of MS2 coat protein” value runs as follows: (input ligand: FMN 200 uM) 139 nM; (input ligand: none) 370 nM.

Regarding “UCUUACUGAGGAUAUACUUAGAUUUACAUGAGGAUCACCCAUGUUCCUCUAUGUAUAUAUGUAGAAGGCAGAAGAA [Mat - Exclusion 5 - JL Mod - D46] (Eterna round: R97, puzzle: Exclusion 5)”, the “apparent KD of MS2 coat protein” value is, setting by setting: (input ligand: FMN 200 uM) 241 nM; (input ligand: none) 37.1 nM.

Take “UCUUGUGUUGAGGAUAUGCGCCGGCUCGCUGGCGCAGAAGGCGGCACAUGAGGAUCACCCAUGUCAGUUCGCGC [salish99_ex6_r004_007] (Eterna round: R97, puzzle: Exclusion 6)”: the “apparent KD of MS2 coat protein” value was 56.3 nM (input ligand: FMN 200 uM) and 205 nM (input ligand: none).

Take “UCUUUACAUGAGGAUCACCCAUGUGAGGAUAUGGUUUCGCUGGCCGUAGCCAGUGGAACCAGAAGGCGCGUGAU [Mat - Exclusion 1 - JL Mod - D25] (Eterna round: R97, puzzle: Exclusion 1)”: the “apparent KD of MS2 coat protein” value (input ligand: FMN 200 uM) turned out to be 55.1 nM and the “apparent KD of MS2 coat protein” value (input ligand: none) is 70.9 nM.

In the case of “UCUUUCUUUGUGAGGAUAUGCCCAAAUAAAAGCGGGCAGAAGGCACAUGAGGAUCACCCAUGUCCUGCGGUUUU [salish99_bmx4_r4_147] (Eterna round: R97, puzzle: Brourd's mod of Exclusion 4)”, the “apparent KD of MS2 coat protein” value runs as follows: (input ligand: FMN 200 uM) 174 nM; (input ligand: none) 16.5 nM.

Take “UGAAAGCUAGGAUAUACAUGAGGAUCACCCAUGUACCGGCUUGGCCCUGGUCCAAAGUGUAGAAGGAGCACGCC [Reedcedima] (puzzle: Exclusion 3)”: the “apparent KD of MS2 coat protein” value under setting [2] is 24.8 nM.

On to “UGAAAGGUAGGAUAUACGAAGAAAAAGGGUAGAAUAAUAACACAUGAGGAUCACCCAUGUAGAAGGACCAAAGU [Mat - Exclusion 2 - Mod of my Tesla design - D10] (puzzle: Exclusion 2)”, for which the “apparent KD of MS2 coat protein” value reads like this: under setting [3], 51.7 nM; under setting [2], 26.2 nM; under setting [4], 24.6 nM.

For the sequence “UGAAAGUGAGGAUAUCCAAUAUAUGACAUGAGGAUCACCCAUGUUUCCACUCGUACCUCCGGAGAAGGCACAAAGU [Ex5 #58] (Eterna round: R97, puzzle: Exclusion 5)”, the “apparent KD of MS2 coat protein” value (input ligand: FMN 200 uM) amounted to 26.2 nM and the “apparent KD of MS2 coat protein” value (input ligand: none) stood at 28.8 nM.

Take “UGAAGUUGUGUGAGGAUAUUUGAAGUGAAAGCUUCGGAGAAGGCACAUGAGGAUCACCCAUGUAAGCGGCUUCG [-25.1, -23 kcal, A 26%, 3bis-3] (Eterna round: R97, puzzle: Brourd's mod of Exclusion 4)”: the “apparent KD of MS2 coat protein” value runs as follows: (input ligand: FMN 200 uM) 18.4 nM; (input ligand: none) 15 nM.

Take “UGACAGCUAGGAUAUGGGCGUGCUUACAUGAGGAUCACCCAUGUGGUAUCUGAGUAGCACCCAGAAGGAGCCCGCG [Eternabot (L2) Solution 87] (Eterna round: R97, puzzle: Exclusion 5)”: the “apparent KD of MS2 coat protein” value runs as follows: (input ligand: FMN 200 uM) 1350 nM; (input ligand: none) 656 nM.

For “UGAGACUGAGGAUAUACUAGCCCAUAAAGUGGGUAGUGGGUACAUGAGGAUCACCCAUGUAGAAGGCAGCCUCG [Omei Repeat Sequence v2] (Eterna round: R97, puzzle: Exclusion 2)”, the “apparent KD of MS2 coat protein” value reads like this: (input ligand: FMN 200 uM) 251 nM; (input ligand: none) 29.4 nM.

As for “UGAGCAUGAGGAUAUACAAGGCGACCGUGAGGUCGAGGGUUACAUGAGGAUCACCCAUGUAGAAGGCAUGUUCU [jl-ex2-4.10] (Eterna round: R97, puzzle: Exclusion 2)”, the “apparent KD of MS2 coat protein” value runs as follows: (input ligand: FMN 200 uM) 514 nM; (input ligand: none) 48.3 nM.

With “UGAGCUCUAGUAGGAUAUGUCGGAUAUGUUGUUGAGGUUCACCCAACGACGUCAAUGACAGAAGGACAGAAGGACUCCUGCUCU [pwkr exNG2 2xFMN 1xF5.7] (Eterna round: R96, puzzle: Exclusion NG 2)”, the “apparent KD of MS2 coat protein” value is 111 nM (input ligand: FMN 200 uM), 77 nM under setting [1] and 315 nM (input ligand: none).

With “UGAGCUUACGUAGGAUAUGAGGAUCACCCAUAGAAGGAUAUCGAAAGAGAAGGUCUGAGGAUUACCCAGAAGGACGUGGGCUCU [pwkr exNG2 2xF5 2xFMN.12] (Eterna round: R96, puzzle: Exclusion NG 2)”, the “apparent KD of MS2 coat protein” value is, setting by setting: (input ligand: FMN 200 uM) 732 nM; under setting [1], 122 nM; (input ligand: none) 151 nM.

Turning to “UGAGCUUCAGGAUAUACAAGGCGACCGUGAGGUCGAAGGUUACAUGAGGAUCACCCAUGUAGAAGGGAAGUUCU [Mat - Exclusion 2 - JL Mod - D13] (Eterna round: R97, puzzle: Exclusion 2)”, the “apparent KD of MS2 coat protein” value stood at 36.7 nM (input ligand: FMN 200 uM) and 21.6 nM (input ligand: none).

(Values after the supplement of paper PMC9170038.)
